Source: article PMC9998874, “Deacetylation induced nuclear condensation of HP1γ promotes multiple myeloma drug resistance” (Nature Communications, 2023)

T1: GST-MDC1-mC-IDR1 (UniProt Q14676 143-339)
T1 construct: MDC1 intrinsically disordered region 1 (IDR1), residues 143-339; In the droplet and turbidity assays the protein is called mCherry-MDC1-IDR1; also called GST-tagged-mCherry-MDC1-IDR1; MDC1-IDR1; source: purified
T1 sequence (looked up): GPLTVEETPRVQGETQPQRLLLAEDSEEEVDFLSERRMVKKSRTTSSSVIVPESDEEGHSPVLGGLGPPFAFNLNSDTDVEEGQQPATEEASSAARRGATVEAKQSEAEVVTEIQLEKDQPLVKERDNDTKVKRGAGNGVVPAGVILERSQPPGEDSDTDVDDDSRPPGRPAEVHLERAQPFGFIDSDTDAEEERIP

T2: GST-MDC1-mC-IDR2 (UniProt Q14676 354-539)
T2 construct: MDC1 intrinsically disordered region 2 (IDR2), residues 354-539; In the droplet and turbidity assays the protein is called mCherry-MDC1-IDR2; also called GST-tagged-mCherry-MDC1-IDR2; MDC1-IDR2; source: purified
T2 sequence (looked up): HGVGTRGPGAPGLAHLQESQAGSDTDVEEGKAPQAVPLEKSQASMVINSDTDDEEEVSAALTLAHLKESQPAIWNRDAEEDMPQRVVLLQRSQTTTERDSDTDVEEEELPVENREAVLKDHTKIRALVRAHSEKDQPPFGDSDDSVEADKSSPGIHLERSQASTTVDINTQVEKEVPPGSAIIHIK


Key:
Details in all cases: both partners purified
purified HDAC1-flag = molecular target: T3, purified HDAC1-flag (UniProt Q13547 1-482); test: pull-down; GST pull-down in vitro: GST-tagged HP1γ held, purified HDAC1-flag as input
T3 construct: histone deacetylase 1 with a flag tag; also called HDAC1-flag fusion protein; flag-HDAC1; source: HEK293T, expressed, purified
T3 sequence (Q13547 whole entry, the tested form may be a part): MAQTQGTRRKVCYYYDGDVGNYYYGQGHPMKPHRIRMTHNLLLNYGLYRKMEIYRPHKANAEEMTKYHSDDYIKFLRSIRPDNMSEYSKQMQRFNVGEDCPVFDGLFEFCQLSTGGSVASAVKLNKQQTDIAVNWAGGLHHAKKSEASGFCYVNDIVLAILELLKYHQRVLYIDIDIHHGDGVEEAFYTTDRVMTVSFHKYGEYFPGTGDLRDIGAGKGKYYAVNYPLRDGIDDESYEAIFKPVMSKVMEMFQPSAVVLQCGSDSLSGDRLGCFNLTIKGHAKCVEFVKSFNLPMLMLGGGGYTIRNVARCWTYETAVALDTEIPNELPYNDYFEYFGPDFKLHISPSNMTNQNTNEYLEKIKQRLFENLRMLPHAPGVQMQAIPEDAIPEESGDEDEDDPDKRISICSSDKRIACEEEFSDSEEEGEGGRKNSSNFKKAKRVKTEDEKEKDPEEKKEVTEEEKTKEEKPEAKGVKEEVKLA

GST-MDC1-mC-IDR1 = molecular target: T1, GST-MDC1-mC-IDR1; test: pull-down; GST pull-down in vitro: GST-tagged mCherry-MDC1-IDR1 or -IDR2 held, purified HP1γ-GFP
GST-MDC1-mC-IDR2 = molecular target: T2, GST-MDC1-mC-IDR2; test: as above

purified HP1γ-GFP, sequence (Q13185 whole entry, change not shown): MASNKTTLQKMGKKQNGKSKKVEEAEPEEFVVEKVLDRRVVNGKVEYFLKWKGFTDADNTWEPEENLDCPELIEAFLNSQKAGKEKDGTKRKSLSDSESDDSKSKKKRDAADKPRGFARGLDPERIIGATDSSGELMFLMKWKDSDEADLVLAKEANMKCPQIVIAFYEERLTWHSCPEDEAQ

Row | binding result (purified HDAC1-flag) | binding result (GST-MDC1-mC-IDR1) | binding result (GST-MDC1-mC-IDR2) | Binder
1 | binds | – | – | GST-fusion HP1γ protein (natural protein, HP1γ (CBX3) fused to GST; Probably made in E. coli BL21 as the other GST fusions of the methods (surmised); also called GST-HP1γ; GST-tagged-HP1γ; source: purified GST-fusion protein ('in vitro expression')) not shown
2 | – | binds | binds | purified HP1γ-GFP (natural protein, HP1γ (CBX3) fused to GFP; the HP1γ-GFP of the pull-down is probably the full-length one (surmised); also called GFP-HP1γ; source: E. coli BL21, purified (glutathione agarose, released by HRV 3C protease)) not shown
